Measurements from patent US20190055322A1 (Ablynx, published 2019).

B1: Nanobody 271 (7C10-40GS-14E10) (VHH)
chain: EVQLVESGGGLVQAGGSLRLSCTASGRTLSSYTMGWFRQAPGTEREFVAAMTRSGFNTYYADSVKGRFTISRDSTENTMALQMSSLKPEDTAVYYCTAGRGLTSYRADYWGQGTLVTVSSGGGGSGGGGSGGGGSGGGGSGGGGSGGGGSGGGGSGGGGSEVQLVESGGGLVQPGGSLRLSCAASGRIFSINTMGWYRQAPGKQRELVAGVTINAITNYADSVKGRFTISRDNAKNTVWLQMNSLKPEDTAVYYCHAWARSSGSAPYSQNWGQGTLVTVSS
B2: Nanobody 319 (13F07-40GS-6B05) (VHH)
chain: EVQLVESGGGLVQAGGSLRLSCAASGNTFSTNPMYWYRQAEGKQRELVASISSRGITNYADSVRGRFSISRDNTKDTVYLQMNSLKPEDTAVYYCRLASLSSGTVYWGKGTLVTVSSGGGGSGGGGSGGGGSGGGGSGGGGSGGGGSGGGGSGGGGSEVQLVESGGGLVQPGGSLRLSCAASGSIFSINTMGWYRQAPGKQRELVSTITSNLVPHYADSVQGRFTISRDNARNTVYLQMNSLKPQDTAHYYCNAWARSSGATPYTNYWGQGTLVTVSS
B3: Nanobody 275 (2G09-40GS-5H01) (VHH)
chain: EVQLVESGGGLVQPGGSLRLSCAASGSFGDNYELYAMTWFRQAPGERRDFVASVTGDGSTSYADSVKDRFTISRDNAKKLMYLQMNSLKPEDTAVYYCRLLNYWGQGTLVTVSSGGGGSGGGGSGGGGSGGGGSGGGGSGGGGSGGGGSGGGGSEVQLVESGGGLVQPGGSLRLSCAASGSTLDYYAIGWFRQAPGKEREGVSCTSNSGSTYYGGSVKGRFTASRDNAKNTVYLQMNSLRPEDTAVYYCVATIGCATLGGTLDVQRYYYRGQGTLVTVSS
B4: Nanobody 285 (13F07-40GS-2B02) (VHH)
chain: EVQLVESGGGLVQAGGSLRLSCAASGNTFSTNPMYWYRQAEGKQRELVASISSRGITNYADSVRGRFSISRDNTKDTVYLQMNSLKPEDTAVYYCRLASLSSGTVYWGKGTLVTVSSGGGGSGGGGSGGGGSGGGGSGGGGSGGGGSGGGGSGGGGSEVQLVESGGGLVQPGDSLRLSCAASGRILSINNMVWYRQAPGKQRELVAHITSSGSTGYADSVKGRFTISRDNAKNTFYLQMTNLNPEDTAVYYCNCWVSSDSNAPLKNYWGQGTLVTVSS
B5: Nanobody 277 (5H01-40GS-11B09) (VHH)
chain: EVQLVESGGGLVQPGGSLRLSCAASGSTLDYYAIGWFRQAPGKEREGVSCTSNSGSTYYGGSVKGRFTASRDNAKNTVYLQMNSLRPEDTAVYYCVATIGCATLGGTLDVQRYYYRGQGTLVTVSSGGGGSGGGGSGGGGSGGGGSGGGGSGGGGSGGGGSGGGGSEVQLVESGGGLVQAGGSLRLSCAASRLTFNHYNMGWFRQAPGKERERVAEVTWSGDKIYYVDSVKGRFTISRDNTPNPVYLYLQMNSLKPEDTAVYYCATAPRGLPYANGYWGQGTLVTVSS

Legend:
Experiment in all cases: cell-based or functional assay
[1] = biological target: T1, PcrV of P. aeruginosa strain PA103 (on TTSS-induced bacteria) (Pseudomonas aeruginosa strain PA103)
[2] = biological target: T1, PcrV of P. aeruginosa strain PA103 (on …); remark: listed apart in the source
[3] = biological target: T1, PcrV of P. aeruginosa strain PA103 (on …); remark: listed apart in the source

Binder	% inhibition in P3X63 cytotoxicity assay, extract 1/150 [1] [%]	Efficacy (%), P3X63 cytotoxicity, MOI 12 [2] [%]	IC50 value (M), P3X63 cytotoxicity, MOI 12 [2] [M]	Ratio (IC50 Fab 13.37/IC50 Nanobody), A549 cytotoxicity [3] [fold]
B1	43	100	5.9e-10	1
B2	46	100	8.1e-11	2
B3	66	100	3.7e-09	1
B4	59	100	6.1e-11	1
B5	85	100	1.3e-11	8
